According to paper PMC3210727:
Where “and” joins values, the source holds several entries; their conditions need not be identical. Equal entries are not always repeated.

Target: H3N2 A/Hong Kong/1/1968 HA [change] (influenza A virus A/Hong Kong/1/1968 (H3N2))

human monoclonal antibody CR8020
Kd: 2 nM and 3 nM
